Earlier results in US20200069786A1, “COMPOSITION AND PROCESS FOR PREPARING VACCINE” (TREOS BIO ZRT., priority 2018, published 2020).
Where two headings read alike, the source gives them in different places.

Tested on: TSA
[1] = TSA expression rate in BLADDER cancer
[2] = TSA expression rate in Cervical cancer
[3] = TSA expression rate in Esophageal
[4] = TSA expression rate in GASTRIC cancer
[5] = TSA expression rate in HEAD and NECK
[6] = TSA expression rate in LEUKEMIAS
[7] = TSA expression rate in MELANOMA
[8] = TSA expression rate in PEDIATRIC
[9] = TSA expression rate in PROSTATE cancer
[10] = TSA expression rate in LUNG cancer
[11] = TSA expression rate in LYMPHOMAS

B1: MAGE-A4 (protein, UniProt P43358 1-317, looked up)
Melanoma-associated antigen 4: MSSEQKSQHCKPEEGVEAQEEALGLVGAQAPTTEEQEAAVSSSSPLVPGTLEEVPAAESAGPPQSPQGASALPTTISFTCWRQPNEGSSSQEEEGPSTSPDAESLFREALSNKVDELAHFLLRKYRAKELVTKAEMLERVIKNYKRCFPVIFGKASESLKMIFGIDVKEVDPASNTYTLVTCLGLSYDGLLGNNQIFPKTGLLIIVLGTIAMEGDSASEEEIWEELGVMGVYDGREHTVYGEPRKLLTQDWVQENYLEYRQVPGSNPARYEFLWGPRALAETSYVKVLEHVVRVNARVRIAYPSLREAALLEEEEGV
TSA Expression Rate (ER) (BRAIN): 11% | TSA Expression Rate (ER) (BREAST): 9% | TSA Expression Rate (ER) (HCC): 7% | TSA Expression Rate (ER) (LUNG): 27% | TSA Expression Rate (ER) (OVARIAN): 37% | TSA Expression Rate (ER) (PANCREATIC): 2% | TSA Expression Rate (ER) (THYROID): 0% | Expression Rate (ER) % [1]: 27% | Expression Rate (ER) % (TSA expression rate in CRC): 18% | Expression Rate (ER) % [2]: 23% | Expression Rate (ER) % [3]: 76% | Expression Rate (ER) % [4]: 24% | Expression Rate (ER) % [5]: 42% | Expression Rate (ER) % (TSA expression rate in Kidney): 17% | Expression Rate (ER) % [6]: 36% | Expression Rate (ER) % [7]: 30% | Expression Rate (ER) % [8]: 41% | Expression Rate (ER) % [9]: 0%

B2: HOM-TES-85 (protein, UniProt Q9P127 1-313, looked up)
Leucine zipper protein 4: MASFRKLTLSEKVPPNHPSRKKVNFLDMSLDDIIIYKELEGTNAEEEKNKRQNHSKKESPSRQQSKAHRHRHRRGYSRCRSNSEEGNHDKKPSQKPSGFKSGQHPLNGQPLIEQEKCSDNYEAQAEKNQGQSEGNQHQSEGNPDKSEESQGQPEENHHSERSRNHLERSLSQSDRSQGQLKRHHPQYERSHGQYKRSHGQSERSHGHSERSHGHSERSHGHSERSHGHSKRSRSQGDLVDTQSDLIATQRDLIATQKDLIATQRDLIATQRDLIVTQRDLVATERDLINQSGRSHGQSERHQRYSTGKNTITT
TSA Expression Rate (ER) (BRAIN): 10% | TSA Expression Rate (ER) (BREAST): 47% | TSA Expression Rate (ER) (HCC): 19% | TSA Expression Rate (ER) (OVARIAN): 32% | Expression Rate (ER) % [1]: 0% | Expression Rate (ER) % [5]: 4% | Expression Rate (ER) % [10]: 11% | Expression Rate (ER) % [11]: 14%

B3: MAGE-A9 (protein, UniProt P43362 1-315, looked up)
Melanoma-associated antigen 9: MSLEQRSPHCKPDEDLEAQGEDLGLMGAQEPTGEEEETTSSSDSKEEEVSAAGSSSPPQSPQGGASSSISVYYTLWSQFDEGSSSQEEEEPSSSVDPAQLEFMFQEALKLKVAELVHFLLHKYRVKEPVTKAEMLESVIKNYKRYFPVIFGKASEFMQVIFGTDVKEVDPAGHSYILVTALGLSCDSMLGDGHSMPKAALLIIVLGVILTKDNCAPEEVIWEALSVMGVYVGKEHMFYGEPRKLLTQDWVQENYLEYRQVPGSDPAHYEFLWGSKAHAETSYEKVINYLVMLNAREPICYPSLYEEVLGEEQEGV
TSA Expression Rate (ER) (BREAST): 44% | TSA Expression Rate (ER) (HCC): 5% | TSA Expression Rate (ER) (OVARIAN): 37% | Expression Rate (ER) % [1]: 61% | Expression Rate (ER) % [3]: 55% | Expression Rate (ER) % [5]: 44% | Expression Rate (ER) % (TSA expression rate in Kidney): 55% | Expression Rate (ER) % [6]: 9% | Expression Rate (ER) % [7]: 12%

B4: FTHL17 (protein, UniProt Q9BXU8 1-183, looked up)
Ferritin heavy …: MATAQPSQVRQKYDTNCDAAINSHITLELYTSYLYLSMAFYFNRDDVALENFFRYFLRLSDDKMEHAQKLMRLQNLRGGHICLHDIRKPECQGWESGLVAMESAFHLEKNVNQSLLDLYQLAVEKGDPQLCHFLESHYLHEQVKTIKELGGYVSNLRKICSPEAGLAEYLFDKLTLGGRVKET
TSA Expression Rate (ER) (BRAIN): 82% | TSA Expression Rate (ER) (BREAST): 14% | TSA Expression Rate (ER) (LUNG): 25% | TSA Expression Rate (ER) (THYROID): 0% | Expression Rate (ER) % [1]: 22% | Expression Rate (ER) % (TSA expression rate in CRC): 0% | Expression Rate (ER) % [3]: 0% | Expression Rate (ER) % [5]: 10% | Expression Rate (ER) % (TSA expression rate in Kidney): 0% | Expression Rate (ER) % [7]: 0% | Expression Rate (ER) % [9]: 0%

B5: SPAN-Xc (protein, UniProt Q9NY87 1-97, looked up)
Sperm protein associated with …: MDKQSSAGGVKRSVPCDSNEANEMMPETSSGYSDPQPAPKKLKTSESSTILVVRYRRNVKRTSPEELVNDHARENRINPLQMEEEEFMEIMVEIPAK
TSA Expression Rate (ER) (BREAST): 26% | TSA Expression Rate (ER) (HCC): 60% | TSA Expression Rate (ER) (OVARIAN): 0% | TSA Expression Rate (ER) (PANCREATIC): 0% | Expression Rate (ER) % [1]: 9% | Expression Rate (ER) % (TSA expression rate in CRC): 24% | Expression Rate (ER) % [3]: 0% | Expression Rate (ER) % [4]: 0% | Expression Rate (ER) % [6]: 4% | Expression Rate (ER) % [10]: 17% | Expression Rate (ER) % [7]: 70%

B6: SSX-2 (protein, UniProt Q16385 1-188, looked up)
Protein SSX2: MNGDDAFARRPTVGAQIPEKIQKAFDDIAKYFSKEEWEKMKASEKIFYVYMKRKYEAMTKLGFKATLPPFMCNKRAEDFQGNDLDNDPNRGNQVERPQMTFGRLQGISPKIMPKKPAEEGNDSEEVPEASGPQNDGKELCPPGKPTTSEKIHERSGPKRGEHAWTHRLRERKQLVIYEEISDPEEDDE
TSA Expression Rate (ER) (BRAIN): 4% | TSA Expression Rate (ER) (BREAST): 7% | TSA Expression Rate (ER) (HCC): 46% | TSA Expression Rate (ER) (OVARIAN): 7% | TSA Expression Rate (ER) (PANCREATIC): 4% | TSA Expression Rate (ER) (THYROID): 8% | Expression Rate (ER) % [1]: 13% | Expression Rate (ER) % (TSA expression rate in CRC): 5% | Expression Rate (ER) % [2]: 4% | Expression Rate (ER) % [3]: 0% | Expression Rate (ER) % [4]: 3% | Expression Rate (ER) % [5]: 17% | Expression Rate (ER) % (TSA expression rate in Kidney): 2% | Expression Rate (ER) % [6]: 12% | Expression Rate (ER) % [10]: 10% | Expression Rate (ER) % [11]: 16% | Expression Rate (ER) % [7]: 35% | Expression Rate (ER) % [8]: 44% | Expression Rate (ER) % [9]: 28%

B7: AKAP-4 (protein, UniProt Q5JQC9 189-854, looked up)
A-kinase anchor protein 4: QSPSAPPAKPPSTQRAVISPDGECSIDDLSFYVNRLSSLVIQMAHKEIKEKLEGKSKCLHHSICPSPGNKERISPRTPASKIASEMAYEAVELTAAEMRGTGEESREGGQKSFLYSELSNKSKSGDKQMSQRESKEFADSISKGLMVYANQVASDMMVSLMKTLKVHSSGKPIPASVVLKRVLLRHTKEIVSDLIDSCMKNLHNITGVLMTDSDFVSAVKRNLFNQWKQNATDIMEAMLKRLVSALIGEEKETKSQSLSYASLKAGSHDPKCRNQSLEFSTMKAEMKERDKGKMKSDPCKSLTSAEKVGEHILKEGLTIWNQKQGNSCKVATKACSNKDEKGEKINASTDSLAKDLIVSALKLIQYHLTQQTKGKDTCEEDCPGSTMGYMAQSTQYEKCGGGQSAKALSVKQLESHRAPGPSTCQKENQHLDSQKMDMSNIVLMLIQKLLNENPFKCEDPCEGENKCSEPRASKAASMSNRSDKAEEQCQEHQELDCTSGMKQANGQFIDKLVESVMKLCLIMAKYSNDGAALAELEEQAASANKPNFRGTRCIHSGAMPQNYQDSLGHEVIVNNQCSTNSLQKQLQAVLQWIAASQFNVPMLYFMGDKDGQLEKLPQVSAKAAEKGYSVGGLLQEVMKFAKERQPDEAVGKVARKQLLDWLLANL
TSA Expression Rate (ER) (BREAST): 85% | TSA Expression Rate (ER) (LUNG): 25% | TSA Expression Rate (ER) (OVARIAN): 89% | Expression Rate (ER) % (TSA expression rate in CRC): 74% | Expression Rate (ER) % [2]: 86% | Expression Rate (ER) % [9]: 65%

B8: TAF7L (protein, UniProt Q5H9L4 1-462, looked up)
Transcription initiation …: MECPEGQLPISSENDSTPTVSTSEVTSQQEPQILVDRGSETTYESSADIAGDEGTQIPADEDTQTDADSSAQAAAQAPENFQEGKDMSESQDEVPDEVENQFILRLPLEHACTVRNLARSQSVKMKDKLKIDLLPDGRHAVVEVEDVPLAAKLVDLPCVIESLRTLDKKTFYKTADISQMLVCTADGDIHLSPEEPAASTDPNIVRKKERGREEKCVWKHGITPPLKNVRKKRFRKTQKKVPDVKEMEKSSFTEYIESPDVENEVKRLLRSDAEAVSTRWEVIAEDGTKEIESQGSIPGFLISSGMSSHKQGHTSSEYDMLREMFSDSRSNNDDDEDEDDEDEDEDEDEDEDEDKEEEEEDCSEEYLERQLQAEFIESGQYRANEGTSSIVMEIQKQIEKKEKKLHKIQNKAQRQKDLIMKVENLTLKNHFQSVLEQLELQEKQKNEKLISLQEQLQRFLKK
TSA Expression Rate (ER) (BREAST): 0% | TSA Expression Rate (ER) (THYROID): 0% | Expression Rate (ER) % [1]: 10% | Expression Rate (ER) % (TSA expression rate in CRC): 0% | Expression Rate (ER) % [3]: 0% | Expression Rate (ER) % [5]: 10% | Expression Rate (ER) % (TSA expression rate in Kidney): 0% | Expression Rate (ER) % [10]: 9% | Expression Rate (ER) % [7]: 21% | Expression Rate (ER) % [9]: 0%

B9: AKAP-3 (protein, UniProt O75969 1-853, looked up)
A-kinase anchor protein 3: MSEKVDWLQSQNGVCKVDVYSPGDNQAQDWKMDTSTDPVRVLSWLRRDLEKSTAEFQDVRFKPGESFGGETSNSGDPHKGFSVDYYNTTTKGTPERLHFEMTHKEIPCQGPRAQLGNGSSVDEVSFYANRLTNLVIAMARKEINEKIDGSENKCVYQSLYMGNEPTPTKSLSKIASELVNETVSACSRNAAPDKAPGSGDRVSGSSQSPPNLKYKSTLKIKESTKERQGPDDKPPSKKSFFYKEVFESRNGDYAREGGRFFPRERKRFRGQERPDDFTASVSEGIMTYANSVVSDMMVSIMKTLKIQVKDTTIATILLKKVLLKHAKEVVSDLIDSFLRNLHSVTGTLMTDTQFVSAVKRTVFSHGSQKATDIMDAMLRKLYNVMFAKKVPEHVRKAQDKAESYSLISMKGMGDPKNRNVNFAMKSETKLREKMYSEPKSEEETCAKTLGEHIIKEGLTLWHKTQQKECKSLGFQHAAFEAPNTQRKPASDISFEYPEDIGNLSLPPYPPEKPENFMYDSDSWAEDLIVSALLLIQYHLAQGGRRDARSFVEAAGTTNFPANEPPVAPDESCLKSAPIVGDQEQAEKKDLRSVFFNFIRNLLSETIFKRDQSPEPKVPEQPVKEDRKLCERPLASSPPRLYEDDETPGALSGLTKMAVSQIDGHMSGQMVEHLMNSVMKLCVIIAKSCDASLAELGDDKSGDASRLTSAFPDSLYECLPAKGTGSAEAVLQNAYQAIHNEMRGTSGQPPEGCAAPTVIVSNHNLTDTVQNKQLQAVLQWVAASELNVPILYFAGDDEGIQEKLLQLSAAAVDKGCSVGEVLQSVLRYEKERQLNEAVGNVTPLQLLDWLMVNL
TSA Expression Rate (ER) (BREAST): 40% | TSA Expression Rate (ER) (HCC): 50% | TSA Expression Rate (ER) (LUNG): 46% | TSA Expression Rate (ER) (OVARIAN): 48% | Expression Rate (ER) % (TSA expression rate in CRC): 83% | Expression Rate (ER) % [4]: 89%
